# Test results published in patent publication US12576029B2, “Noncompetitive receptor-targeted vaccine delivery to plasmacytoid dendritic cells” (Washington University, priority 2022, dated 2026).
# System: pDC
# Assay: pDC fraction after FLT3L injection in mice
# Format: in vivo
# Settings: after 7 days
# Excerpt: Inbred mice and distribution of dendritic cells: BL/6, SV129 and […] inbred mouse lines were obtained from Jackson Laboratory (Bar Harbor, ME) The distribution of dendritic cells were examined using flow cytometry by using fluorochrome-conjugated monoclonal antibodies. Briefly, cells from spleen and liver were isolated from the mice and stained using fluorophore labeled antibodies. Cells were then fixed using 4% paraformaldehyde and analyzed by flow cytometry.
# Further, the amount of pDC fraction was found inducible with injection of FMS-like tyrosine kinase 3 ligand in mice after 7 days (FIG. 2A-2B). Incubation of bone marrow differentiation culture with mouse transferrin for 7 days enhanced CD71 expression and pDC fraction (FIG. 2C-2D).
molecule,measurement,setting,value
"FMS-like tyrosine kinase 3 ligand: FMS-like tyrosine kinase 3 ligand injected in mice to induce pDC fraction (protein, UniProt P49771 27-235, looked up) Fms-related tyrosine kinase 3 …: TQDCSFQHSPISSDFAVKIRELSDYLLQDYPVTVASNLQDEELCGGLWRLVLAQRWMERLKTVAGSKMQGLLERVNTEIHFVTKCAFQPPPSCLRFVQTNISRLLQETSEQLVALKPWITRQNFSRCLELQCQPDSSTLPPPWSPRPLEATAPTAPQPPLLLLLLLPVGLLLLAAAWCLHWQRTRRRTPRPGEQVPPVPSPQDLLLVEH",pDC fraction,,inducible
same,pDC fraction,listed as FLT3L,inducible upregulation
